The target of data set [1] is T1, cyanuric acid hydrolase from M. thermoacetica (Moorella thermoacetica, UniProt Q2RGM7).
T1 construct: ORF Moth—2120 from M. thermoacetica ATCC 39073 was PCR amplified; His-tag (from pET28b+, cloned NdeI/HindIII) (N); made in house; host or cells: E. coli BRL21(DE3) pLysS, vector pET28b+::Moth_2120
T1 sequence (Q2RGM7 1-367): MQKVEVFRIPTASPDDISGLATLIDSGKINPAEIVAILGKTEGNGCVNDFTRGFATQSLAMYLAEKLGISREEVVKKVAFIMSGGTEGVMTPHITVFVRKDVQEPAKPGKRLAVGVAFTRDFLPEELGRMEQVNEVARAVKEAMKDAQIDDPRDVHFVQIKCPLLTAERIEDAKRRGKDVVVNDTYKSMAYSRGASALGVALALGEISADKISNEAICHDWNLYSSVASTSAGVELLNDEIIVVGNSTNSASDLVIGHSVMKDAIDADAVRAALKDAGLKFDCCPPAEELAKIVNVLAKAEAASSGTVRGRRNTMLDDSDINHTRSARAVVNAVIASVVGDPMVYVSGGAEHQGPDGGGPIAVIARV
In words: Metal chelator effects. The class given is biochemical, Moorella thermoacetica ATCC 39073. Conditions: for effect of chelator on activity: 5 mM chelator, 24 h incubation, room temperature. The method, then:
Metal chelator effects. Purified protein was incubated at room temperature with 5 mM 1,10-phenanthroline, 8-hydroxyquinoline-5-sulfonic acid, or ethylenediaminetetraacetic acid (EDTA) for 24 hours. PD-10 desalting columns (GE Healthcare) were used, as per the manufacturer's instructions, to remove the chelator from the enzyme. Enzymatic activity was measured with cyanuric acid as substrate, as described above.

Data set [2] deals with T1, cyanuric acid hydrolase from M. thermoacetica. It counts as biochemical, Moorella thermoacetica ATCC 39073. The conditions noted are these: for activity as % of native activity: at higher concentrations (1.0 and 2.0 mM); for effect of metal on native enzyme activity: 0.2 mM.
Data set [3] addresses T2, Moorella cyanuric acid hydrolase (Moorella thermoacetica, UniProt Q2RGM7).
T2 construct: ORF Moth—2120 from M. thermoacetica ATCC 39073 was PCR amplified; His-tag (from pET28b+, cloned NdeI/HindIII) (N); made in house; host or cells: E. coli BRL21(DE3) pLysS, vector pET28b+::Moth_2120
T2 sequence (Q2RGM7 1-367): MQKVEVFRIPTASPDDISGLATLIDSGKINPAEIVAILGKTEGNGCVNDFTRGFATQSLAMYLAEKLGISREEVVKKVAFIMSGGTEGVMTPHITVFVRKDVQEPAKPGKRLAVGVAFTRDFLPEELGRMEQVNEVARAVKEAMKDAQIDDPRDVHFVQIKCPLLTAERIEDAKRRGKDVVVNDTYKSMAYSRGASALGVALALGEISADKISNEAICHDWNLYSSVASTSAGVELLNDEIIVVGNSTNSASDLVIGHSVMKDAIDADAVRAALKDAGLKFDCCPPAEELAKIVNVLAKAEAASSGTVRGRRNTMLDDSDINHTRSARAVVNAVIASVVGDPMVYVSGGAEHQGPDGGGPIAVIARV
The experiment in a line: Substrate specificity analysis. The class given is biochemical, Moorella thermoacetica ATCC 39073. The method, then: (§1) Enzyme assay and kinetic constant determinations. Enzyme activity was monitored on a Beckman DU 640 spectrophotometer (Beckman Coulter, Fullerton, Calif.). Cyanuric acid and barbituric acid concentrations were measured at 214 nm (extinction coefficient=9200 cm^−1M^−1) and 256 nm, respectively. Reactions were carried out in 0.5 ml 25 mM Tris-HCl buffer, pH 8.0 with 100 μM cyanuric acid or barbituric acid at 30° C. Reactions were initiated by the addition of the enzyme. Kinetic parameters were determined by obtaining rates at cyanuric acid concentrations ranging from 10 to 110 μM. The data was plotted using Lineweaver-Burke plots.
Substrate specificity analysis. Seventeen compounds structurally analogous to cyanuric acid were tested as substrates: 5-nitrobarbituric acid, 5-methylbarbituric acid, 2-methylamino-4,6dihydroxy-s-triazine, 1,3,5-trimethoxy-s-triazine, 2-(3-methoxy propylamino)-4,6-dihydroxy-s-triazine, triphenoxy-s-triazine, 2-secbutyl-4,6-dihydroxy-s-triazine, N-phenyl ammelide, 2-ethylamino-4,6-dihydroxy-s-triazine, triisopropoxy-s-triazine, trimethyl isocyanurate, 1,3-dimethyl isocyanurate, hexazinone, 4,6-dihydroxy-2-mecapto pyrimidine, 4,6-dihydroxy-5-nitro-pyrimidine, barbituric acid and methyl isocyanurate. The compounds (100 μM) were incubated with 50 μg of purified enzyme in 25 mM Tris-HCl buffer (pH 8.0) for 30 min. Changes in the UV spectra were recorded. In cases where changes in the spectra were detected, an appropriate wavelength with absorbance differences between the substrate and product was chosen for further kinetic study. For N-methylisocyanurate, absorbance was measured at 214 nm (extinction coefficient=9500 cm^−1M^−1).

A short description of data set [4]: Temperature stability of the enzyme (30 min incubation prior to assay). The class given is biochemical. On the procedure:
FIG. 4. Stability of enzyme activity vs. temperature at pH 8.0 for purified cyanuric acid hydrolases from M. thermoacetica ATCC 39073 (●) compared with TrzD (▪) and AtzD (▴). Enzymes were maintained at the temperature indicated for 30 minutes prior to assay under standard conditions.
(§2) Temperature stability of the enzyme. The thermal stability of the enzyme was determined by incubating the enzyme at various temperatures for […] prior to activity determinations. Studies of the stability during storage were performed at 4° C. or −80° C. with or without additives. The additives were 0.2 mM of dithiothreitol (DTT), 10% ethylene glycol, 25% glycerol and 25% polyethylene glycol (PEG) 4000. The activity was checked every two weeks, as described above.

Data set [5] in a line: Enzyme assay and kinetic constant determinations (cyanuric acid, 214 nm). It counts as biochemical. On the procedure:
as §1

Data set [6] is described as follows: Effect of pH and temperature on enzymatic activity. The class given is biochemical. The method, then:
Effect of pH and temperature on enzymatic activity. The optimum pH of the enzyme was determined at 30° C. with the following buffers: 25 mM […]; 25 mM Tris-HCl, pH 7-9; NaHCO3/Na2CO3, pH 9.5-10.5. The temperature optimum was determined by assaying the enzyme activity in 25 mM Tris-HCl, pH 8.0 at temperatures ranging from 25° C. to 70° C.

Data set [7] concerns the target T3, cyanuric acid hydrolase from M. thermoacetica ATCC 39073 (Moorella thermoacetica, UniProt Q2RGM7).
T3 construct: ORF Moth—2120 from M. thermoacetica ATCC 39073 was PCR amplified; His-tag (from pET28b+, cloned NdeI/HindIII) (N); made in house; host or cells: E. coli BRL21(DE3) pLysS, vector pET28b+::Moth_2120
T3 sequence (Q2RGM7 1-367): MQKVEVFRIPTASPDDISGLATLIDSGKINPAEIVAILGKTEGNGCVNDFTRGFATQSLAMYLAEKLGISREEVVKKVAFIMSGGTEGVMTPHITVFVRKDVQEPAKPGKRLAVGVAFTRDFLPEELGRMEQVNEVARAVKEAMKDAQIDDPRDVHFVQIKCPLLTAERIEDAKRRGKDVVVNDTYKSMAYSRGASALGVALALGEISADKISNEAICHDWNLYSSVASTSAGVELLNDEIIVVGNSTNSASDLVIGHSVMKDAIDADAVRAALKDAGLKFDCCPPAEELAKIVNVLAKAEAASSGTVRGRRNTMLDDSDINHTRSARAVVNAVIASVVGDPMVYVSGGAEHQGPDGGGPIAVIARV
The experiment in a line: Storage stability at 4° C. or −80° C. with or without additives. The class given is biochemical, Moorella thermoacetica ATCC 39073. The conditions noted are these: for Activity, 0 week: pH 8.0, 0 week; for Activity, 2 week: pH 8.0, 2 week; for Activity, 4 week: pH 8.0, 4 week; for Activity, 6 week: pH 8.0, 6 week; for Activity, 8 week: pH 8.0, 8 week. The method, then: as §2

For data set [8] the following is noted: cyanuric acid, published values, cited from earlier work.

Read-outs that look alike come from different tables or passages of the source.

Regarding `O=S(=O)(O)c1ccc(O)c2ncccc12` [8-hydroxyquinoline-5-sulfonic acid], in data set [1], the “effect of chelator on activity” value is “failed to alter activity”.
Turning to `[Ca+2].[Cl-].[Cl-]` [CaCl2], the “activity as % of native activity” value in data set [2] was 121%. The Relative activity in data set [2] (metal salt 1.0 mM) stood at 121 ± 7.
Turning to `[Cl-].[Cl-].[Co+2]` [CoCl2], the Relative activity in data set [2] was determined as 92 ± 5.
`[Cl][Cu][Cl]` [CuCl2]: the “effect of metal on native enzyme activity” value in data set [2] is listed as “slight decreases in activity”. Moreover, the Relative activity in data set [2] (metal salt 0.2 mM) is listed as 83 ± 3.
Turning to `O=C(O)CN(CCN(CC(=O)O)CC(=O)O)CC(=O)O` [EDTA, ethylenediaminetetraacetic acid], in data set [1], the “effect of chelator on activity” value is on record as “failed to alter activity”.
Turning to `[Cl][Fe]([Cl])[Cl]` [FeCl3], in data set [2] (metal salt 0.2 mM), the Relative activity stood at 105 ± 4.
In the case of `[Cl-].[Cl-].[Mg+2]` [MgCl2], in data set [2], the “activity as % of native activity” value is on record as 119%. The Relative activity in data set [2] (metal salt 2.0 mM) came out at 119 ± 2.
As to `O=S(=O)([O-])[O-].[Mn+2]` [MnSO4], in data set [2] (metal salt 0.2 mM), the Relative activity is reported as 96 ± 3.
In the case of `[Cl][Ni][Cl]` [NiCl2], the “effect of metal on native enzyme activity” value in data set [2] is listed as “slight decreases in activity”. The Relative activity in data set [2] (metal salt 0.2 mM) is listed as 79 ± 3.
The like results for `O=S(=O)([O-])[O-].[Zn+2]` [ZnSO4] were, in that order, “greatest inhibitory affect” and 51 ± 4.
Take `O=C1CC(=O)NC(=O)N1` [barbituric acid]: the “detectable activity with compound as substrate” value in data set [3] (100 μM, even with 50 μg of protein in a single assay) was “did not show detectable activity”.
On to `Cn1c(=O)[nH]c(=O)[nH]c1=O` [methyl isocyanurate], for which the “rate relative to the preferred substrate cyanuric acid” value in data set [3] is “less than 1%”. The “rate of hydrolysis as substrate” value in data set [3] (100 μM compound, 25 mM Tris-HCl pH 8.0) worked out at 0.13 µmol/min/mg.
On to `c1cnc2c(c1)ccc1cccnc12` [o-phenanthroline, 1,10-phenanthroline], for which, in data set [1], the “effect of chelator on activity” value is reported as “failed to alter activity”.

B1: cyanuric acid hydrolase from M. thermoacetica ATCC 39073: recombinant His-tagged cyanuric acid hydrolase encoded by ORF Moth—2120 of Moorella thermoacetica ATCC 39073, expressed in E. coli (protein, listed as Moorella thermoacetica)
chain: MQKVEVFRIPTASPDDISGLATLIDSGKINPAEIVAILGKTEGNGCVNDFTRGFATQSLAMYLAEKLGISREEVVKKVAFIMSGGTEGVMTPHITVFVRKDVQEPAKPGKRLAVGVAFTRDFLPEELGRMEQVNEVARAVKEAMKDAQIDDPRDVHFVQIKCPLLTAERIEDAKRRGKDVVVNDTYKSMAYSRGASALGVALALGEISADKISNEAICHDWNLYSSVASTSAGVELLNDEIIVVGNSTNSASDLVIGHSVMKDAIDADAVRAALKDAGLKFDCCPPAEELAKIVNVLAKAEAASSGTVRGRRNTMLDDSDINHTRSARAVVNAVIASVVGDPMVYVSGGAEHQGPDGGGPIAVIARV
modifications: His tag
notes: recombinant His-tagged cyanuric acid hydrolase encoded by ORF Moth—2120 of Moorella thermoacetica ATCC 39073, expressed in E. coli
For orientation: Km means the substrate concentration at which the rate is half of its maximum. As a reminder, the kcat is the maximal rate divided by the concentration of active sites. As for B1, the “Influence of chelators on activity” value in data set [1] is “No affect EDTA, o-”. The “initial activity remaining after 30 min at 50° C.” value in data set [4] (30 min, pH 8.0) was “stable”. Moreover, the “initial activity remaining after 30 min at 50° C.” value in data set [4] (30 min, pH 8.0, listed as Moorella enzyme) turned out to be 95%. Moreover, the “initial activity remaining after 30 min at 70° C.” value in data set [4] (70° C., 30 min, pH 8.0) worked out at 30%. In data set [4] (pH 8.0, 30 min incubation), the “Thermostability: temperature where activity above 50% after a 30 min incubation” value was 20-65 °C. Also, the “Metal affects on activity” value in data set [2] was “Cu(II), Zn(I), Ni(II)”. For the same molecule, the “specific activity with cyanuric acid” value in data set [5] (100 μM cyanuric acid, 25 mM Tris-HCl pH 8.0, 30° C.) was 15.7 µmol/min/mg. Besides, the Km in data set [5] (cyanuric acid 10 to 110 μM, Lineweaver-Burke, read-out: Km with cyanuric acid as substrate) was determined as 110 µM. The kcat in data set [5] (cyanuric acid as substrate) turned out to be 10.6 s⁻¹. In addition, the Known substrates result in data set [3] was “Cyanuric acid, N-”. Besides, the “Temp, optimum” value in data set [6] (25 mM Tris-HCl pH 8.0, range 25-70° C.) stood at 70 °C. In data set [6] (30° C., pH 5.5 to 10.5), this molecule registered a pH optimum of 8.0. For the same molecule, in data set [6] (70° C., pH 8.0), the “maximum activity at 70° C.” value is 24 μmol per min per mg protein. Moreover, the “loss of activity after 8 weeks” value in data set [7] (both storage temperatures (4° C. and −80° C.)) is “no loss of activity”. The “specific activity after 8 weeks as % of initial specific activity” value in data set [7] (stored at 4° C., 8 weeks) is given as 142%. In addition, in data set [7] (stored at 4° C.), the “Activity, 0 week” value is 11.9 ± 0.23 μmol per min per mg protein; the “Activity, 2 week” value is on record as 12.5 ± 0.2 μmol per min per mg protein; the “Activity, 4 week” value is listed as 15.9 ± 0.7 μmol per min per mg protein; the “Activity, 6 week” value is given as 16.6 ± 0.9 μmol per min per mg protein. For the same molecule, in data set [7] (stored at 4° C.), the “Activity, 8 week” value is listed as 16.9 ± 1^ μmol per min per mg protein. In data set [7] (stored at −80° C.), the “Activity, 0 week” value is 11.9 ± 0.2 μmol per min per mg protein; the “Activity, 2 week” value is given as 14.9 ± 0.1 μmol per min per mg protein; the “Activity, 4 week” value is listed as 14.3 ± 0.3 μmol per min per mg protein; the “Activity, 6 week” value was 12.3 ± 0.4 μmol per min per mg protein. Besides, the “Activity, 8 week” value in data set [7] (stored at −80° C.) is reported as 11.7 ± 1.1 μmol per min per mg protein. The “kcat (literature)” value in data set [8] was 10.6 s⁻¹. Moreover, the Km in data set [8] (read-out: Km (literature)) is 110 µM.
